According to PMC2132603:

Biological target: T1, Sec17p (S. cerevisiae (endogenous in yeast vacuoles)), P32602
T1 chain: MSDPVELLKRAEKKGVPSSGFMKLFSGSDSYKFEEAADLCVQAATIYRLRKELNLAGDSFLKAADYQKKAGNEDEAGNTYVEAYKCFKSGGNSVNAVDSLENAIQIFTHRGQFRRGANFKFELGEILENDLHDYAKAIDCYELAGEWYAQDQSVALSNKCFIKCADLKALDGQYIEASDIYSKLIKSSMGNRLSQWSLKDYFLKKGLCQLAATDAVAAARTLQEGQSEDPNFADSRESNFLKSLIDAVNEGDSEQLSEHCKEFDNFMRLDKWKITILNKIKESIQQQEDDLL
Test: co-IP
Conditions: remark: other sources report otherwise

B1: Vam3p, Q12241 1-283 (natural protein)
chain: MSFFDIEAQSSKGNSQQEPQFSTNQKTKELSNLIETFAEQSRVLEKECTKIGSKRDSKELRYKIETELIPNCTSVRDKIESNILIHQNGKLSADFKNLKTKYQSLQQSYNQRKSLFPLKTPISPGTSKERKDIHPRTEAVRQDPESSYISIKVNEQSPLLHNEGQHQLQLQEEQEQQQQGLSQEELDFQTIIHQERSQQIGRIHTAVQEVNAIFHQLGSLVKEQGEQVTTIDENISHLHDNMQNANKQLTRADQHQRDRNKCGKVTLIIIIVVCMVVLLAVLS
- percent of Vam3p coprecipitated with Sec17p: > 50%
